Results taken from PMC1905944.
Where “and” joins values, the source holds several entries; their conditions need not be identical. Equal entries are not always repeated.

What was measured:
[1] = target: full-length HIV-1 WT integrase (HIV-1); assay: cross-linking + SEC; covalent IN oligomers made by chemical cross-linking and separated by size-exclusion chromatography, as previously described [10]; dimers and tetramers recovered
[2] = target: full-length HIV-1 WT integrase (HIV-1); assay: cross-linking; IN (5 pmol, 0.5 uM) with the 5'-radiolabelled 38-bp PalA/PalB duplex (1 pmol, 0.1 uM; HIV-1 LTR-LTR junction) and AHDAP 300 uM, 0.05% NP40, 10 mM DTT, 20 mM HEPES pH 7.5, 37 C in the dark, 0 to 60 min; SDS-PAGE and autoradiography; IN oligomers seen bound to DNA

Substance: full-length HIV-1 WT integrase (enzyme)
- stoichiometry N [1]: 2 and 4
- stoichiometry N [2]: 2 and 4
